The supplement of paper PMC10724198
± gives the standard deviation of the averaged measurements.

Tested on: Saccharomyces cerevisiae
Assay: protein stability index of tFT-peptide fusion (C-terminal peptide) (PSI (0-1 scale)); higher = more stable (slower turnover)
Conditions: genetic background: wild type; temperature: 30 C
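Also: PSI is a weighted mean of sequencing reads over stability bins, variants kept only with over 10 reads, mCherry proximal and sfGFP distal, peptide attached via GGGS linker.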

Row | Sequence | protein stability index
1 | SSRPTLLSPPPA | 0.706 ± 0.012
2 | KKKKNNKKKQRT | 0.731 ± 0.027
3 | SPRSPPSPPPRP | 0.746 ± 0.045
4 | CRPTGSSTRFQL | 0.718 ± 0.01
5 | TYGPSLPVHAVT | 0.686 ± 0.012
6 | SMLLFFLPSSSS | 0.641 ± 0.046
7 | APPPVFLPPPPP | 0.778 ± 0.039
8 | QKRKQKKIIQRM | 0.652 ± 0.013
9 | FWGCFVWFCVCG | 0.509 ± 0.023
10 | LIHSSCSCPWCD | 0.666 ± 0.011
11 | VAVGAGAGAMGL | 0.656 ± 0.0094
12 | PTPGSPPPPLHP | 0.706 ± 0.02
13 | AFSGMMSVFREW | 0.695 ± 0.049
14 | VFFCALCRLWLG | 0.5 ± 0.029
15 | GAPRESSEGRAQ | 0.725 ± 0.095
16 | KALQRKCRKRHK | 0.673 ± 0.039
17 | NGISQWMGIGGQ | 0.667 ± 0.011
18 | LGGGVLDVRGQL | 0.711 ± 0.011
19 | LSLRGRLNYRMM | 0.647 ± 0.011
20 | GCASTNTPSTTP | 0.714 ± 0.022
21 | KTQKKPNNRKNI | 0.682 ± 0.04
22 | LSPPRSPPSRPP | 0.645 ± 0.029
23 | SISQSSSLGLED | 0.677 ± 0.046
24 | LIQKQTGKKKKP | 0.7279 ± 0.0051
25 | SLALSPQFLSFP | 0.749 ± 0.081
26 | TYPMGVVLVESG | 0.498 ± 0.011

Row | Sequence | protein stability index
27 | YCSITGIRLLVG | 0.579 ± 0.023
28 | RDVVRGVSRGGR | 0.714 ± 0.02
29 | SLPRWLPPPLQS | 0.687 ± 0.0095
30 | RPVSQRRRKHIG | 0.645 ± 0.064
31 | PPPFSPPSDLPL | 0.601 ± 0.041
32 | LEWHRPLCPPLF | 0.734 ± 0.075
33 | LVRMCLFNMHFS | 0.698 ± 0.018
34 | WVEACVCRGFVG | 0.698 ± 0.059
35 | RHLVSPSTRAIS | 0.77 ± 0.15
36 | GPFPMRRTFRFA | 0.667 ± 0.056
37 | DLRGDYCAGARV | 0.685 ± 0.028
38 | VPLPLVPCARIY | 0.627 ± 0.0093
39 | CSDISASTVSRL | 0.715 ± 0.039
40 | RLPPPPPSPFPS | 0.778 ± 0.056
41 | DSTVGRTLRTRR | 0.617 ± 0.068
42 | WWLRLVLCGWEW | 0.721 ± 0.074
43 | TNSKLTKERTEI | 0.699 ± 0.049
44 | VGSAENQHTGRM | 0.678 ± 0.018
45 | PFTSPAGSFPPP | 0.762 ± 0.068
46 | ATQVGGPTHSHP | 0.7016 ± 0.0031
47 | GVGGGMWCGFGV | 0.701 ± 0.074
48 | KKKKKKKKQEQN | 0.63076 ± 3e-05
49 | MGFRSVRGWVSL | 0.699 ± 0.093
50 | IMVLKAAVSKQE | 0.69 ± 0.09
51 | ILQWEESRKGGI | 0.715 ± 0.054
52 | FRCFDAQRLGGV | 0.6858 ± 0.002

Row | Sequence | protein stability index
53 | SGVSRSGREFRN | 0.634 ± 0.088
54 | CEVGSKGCACRV | 0.649 ± 0.025
55 | SPRLLPSPTRVA | 0.643 ± 0.059
56 | YGIILPIRVSGF | 0.631 ± 0.035
57 | LPPSPPPFPPLP | 0.642 ± 0.011
58 | MAEGRARLWGPS | 0.701 ± 0.024
59 | AAPPHLTSHPPL | 0.811 ± 0.19
60 | HPTDVAISPRPS | 0.678 ± 0.023
61 | FSLLLSFPCSYL | 0.601 ± 0.021
62 | CISCVVDSPLSV | 0.712 ± 0.045
63 | VSNKWATANKYG | 0.644 ± 0.051
64 | HRFFDGVRFPGH | 0.692 ± 0.038
65 | FSPPPLPAASPS | 0.664 ± 0.071
66 | GYVVVGGGGWLG | 0.6754 ± 0.0025
67 | PYPVRSRPPAPA | 0.6726 ± 0.0039
68 | PPPSHLGSLDPL | 0.661 ± 0.02
69 | PVPRPSERSFLL | 0.7316 ± 0.0057
70 | VCGGRQVGWGGW | 0.684 ± 0.045
71 | LVDAGGSTRGKP | 0.643 ± 0.0069
72 | EESKEKKKNEEE | 0.63584 ± 4.9e-05
73 | NDNNSRSGRRIF | 0.66 ± 0.019
74 | KIYLKDKKKSKK | 0.668 ± 0.057
75 | QSKIKNKNIKIK | 0.671 ± 0.017
76 | FGFLSVSPLLSV | 0.642 ± 0.016
77 | NVWGTGGMCTFV | 0.7058 ± 0.0019
78 | DLYPSVWVSIGP | 0.721 ± 0.019

Row | Sequence | protein stability index
79 | DMSVVCDRVLFD | 0.733 ± 0.034
80 | QGDPTCLKGINE | 0.669 ± 0.05
81 | KKKKLKQKKNKQ | 0.655 ± 0.008
82 | GGAVGYRLVACD | 0.656 ± 0.11
83 | PPPTPLLLSHLL | 0.709 ± 0.068
84 | GIRRSLALSAIS | 0.555 ± 0.017
85 | PFGSYIRHRENT | 0.759 ± 0.14
86 | PSLIRTPTTPSP | 0.69 ± 0.018
87 | RQHPPLPSFPSP | 0.759 ± 0.06
88 | THSTLRRFSGYS | 0.7005 ± 0.001
89 | ARCLSFPSSSSA | 0.654 ± 0.022
90 | GCFTLLCFRRIL | 0.511 ± 0.012
91 | ASFPPVHPALSP | 0.664 ± 0.035
92 | FPGFHPIFPPPL | 0.664 ± 0.093
93 | TFNRIFGNALPG | 0.688 ± 0.044
94 | PPAFLSPPLDPL | 0.6054 ± 0.0032
95 | PPPALTHLLPLP | 0.678 ± 0.058
96 | GHKVTKDAIRIR | 0.6545 ± 0.0047
97 | TYQRTHKTATQF | 0.681 ± 0.073
98 | VGGGFSSVVWLW | 0.658 ± 0.043
99 | PPPPPPPPHSPP | 0.672 ± 0.035
100 | DKMLDIETNNKH | 0.654 ± 0.033
101 | ANELQEIYLGET | 0.6881 ± 0.006
